In patent publication US20260000736A1, “PURIFIED LACTOFERRIN COMPOSITIONS AND METHODS OF USE” (Lactea Therapeutics LLC, priority 2023, published 2026):
“And” between values parts separate entries of the source, which are not always exact repeats. Equal values may be shown once.

Legend:
[1] = Differential Scanning Calorimetry (DSC) of apolactoferrin and hololactoferrin forms; format: physicochemical; details: 10 mg/mL
Method: Di[…] Calorimetry (DSC) was used to assess the hololactoferrin and apolactoferrin forms through monitoring unfolding temperatures of lactoferrin samples using a nanoDSC (TA Instruments, Lindon, UT) according to standard DSC protocols known to those of skill in the art (e.g., see Hinz et al “M[…] […] OF […] ON […] DI[…] CALORIMETRY”; herein incorporated by reference for all purposes.
API-E2 Lactoferrin (10 mg/mL), produced as described herein, was assessed by DSC. […] The lack of other peaks indicates the lack of contaminants and impurities and can assess API-E2 as ˜100%. […] Additionally, the lack of other peaks also indicated the purity of API-E2 Lactoferrin. […] The API-E2 hololactoferrin peak has a Tm of 88.38+/−0.8 C and a delta H of 632.7+/−7.2 kJ/mol. The hololactoferrin natively accounted for on average 8.74+/−1.39% of the total API-E2 lactoferrin with apolactoferrin accounting for the rest in the samples tested. However, the hololactoferrin percentage can be naturally variable. The API-E2 was calculated by this technique to contain virtually 100% pure lactoferrin.
The assay was also performed with heat-treated API-E2 Lactoferrin. API-E2 Lactoferrin was heated across a range of 50-100° C.
Lab-grade standard lactoferrin and a commercially available supplement-grade lactoferrin were also assessed by DSC under the conditions used to assess API-E2 above.

[2] = system: Salivary bacteria (including Lactobacillus, Lactococcus, and Streptococcus mutans); experiment: Salivary bacteria acid production, pH over time; format: cell-based; details: in the presence of sucrose, entire 6 hour testing period
Method: Salivary bacteria (including Lactobacillus, Lactococcus, and Streptococcus mutans) produce acid during growth. This acidification is strongly associated with tooth decay, particularly when it results in pH below 5.5, which is a clinically relevant threshold. A slurry of these bacteria were treated with sucrose to stimulate growth, as well as varying concentrations of API-E2 lactoferrin. Upon the addition of sucrose and API-E2 lactoferrin, the pH was adjusted to 7 through a titration and the change in pH was subsequently monitored over the next 6 hours.

[3] = system: E. coli 0157; experiment: Bacterial growth inhibition, OD600 after 16 h; format: cell-based; details: 1 mg/mL Lf, 16 h at 37° C.; for Relative Bacterial Growth, Replicate 1 / Relative Bacterial Growth, Replicate 2 / Relative Bacterial Growth, Replicate 3: 10∝CFU/mL E. coli 0157 in LB, OD600 relative to untreated
Method: As an analytical standard for the assessment of Lactoferrin (Lf) activity, 1 mg/mL Lf was added to 10∝CFU/mL E. coli 0157 in LB and incubated for 16 h at 37° C. Lactea Lactoferrin (Lactea-Lf) was produced as described in the above examples. Assessed were three independent lots of Lactea-Lf, impure samples which were generated by co-eluting Lactoperoxidase and Lactoferrin (co-elution), samples with degradation products generated by eluting Lactoferrin from old milk which was left for three days (Degradation Products), and a Sigma Aldrich Lactoferrin L9507 (Research Standard). As shown in FIG. 16 and quantified in Table 5, in the Lactea-Lf lots assessed, less than 5% the total growth of bacteria was observed as assessed by OD600 relative to the growth of untreated bacteria under these conditions. In this case, co-elution samples were samples which have a detectable peak of LPO as observable in MALDI-TOF M/S or HPLC. Degradation Products had identifiable degradation peaks as observed in HPLC or DSC.

[4] = system: E. coli 0157; experiment: Biofilm formation, crystal violet assay; format: cell-based; details: for Biofilm Inhibition, Replicate 1 / Biofilm Inhibition, Replicate 2 / Biofilm Inhibition, Replicate 3: 24 hours
Method: Lactoferrin was assessed for biofilm growth inhibition. To study the relative concentration dependent efficacy of Lactea-Lf and the Sigma Aldrich research standard Lactoferrin in inhibiting biofilm formation, Lf was added at concentrations ranging from 2 mg/mL to 0.31 mg/mL (2-fold serial dilution curve) to E. coli 0157 in LB seeded at 10∝CFU/mL and incubated for 37° C. for 24 hours. Lactea Lactoferrin (Lactea-Lf) was produced as described in the above examples. The biofilm was stained using a standard crystal violet assay. A quantification of the inhibition of biofilm formation (FIG. 18A) and an image of a representative plate (FIG. 18B) are shown.

[5] = system: Bifidobacterium longum; experiment: Planktonic growth in culture, OD600; format: cell-based; details: 10-fold serial dilution of Lf, 18 hours
[6] = system: Enterobacter cloacae; experiment: Biofilm formation, crystal violet assay; format: cell-based; details: 24 hours of growth
[7] = system: Staphylococcus epidermidis; experiment: Biofilm formation, crystal violet assay; format: cell-based; details: 24 hours of growth
[8] = system: Enterococcus faecalis; experiment: Biofilm formation, crystal violet assay; format: cell-based; details: 24 hours of growth
[9] = system: mice with two 10 mm puncture wounds through the skin; experiment: Mouse puncture wound model, survival; format: in vivo
Method: Lactea Lactoferrin (Lactea-Lf) was produced as described in the above examples and freeze-dried by lyophilization into a powder. Lactea-Lf was then administered as the freeze-dried powder in a variety of animal wound contexts.
In a first assessment in a mouse model setting, mice were anesthetized with isoflurane and two 10 mm puncture wounds were made through the skin of each mouse on the back. Three of the mice were treated with Lf added as a freeze dried powder directly into the wound bed while anesthetized immediately after wounds were made, while the three other mice were left completely untreated. Mice were then transferred to non-sterile housing and observed daily.

[10] = system: pigs with dermatome wounds; experiment: Pig dermatome wound healing model; format: in vivo; details: dermatome wounds 40×40 mm at a depth of 0.76 mm, topical treatment
Method: In a first assessment in a pig model setting, using a dermatome, six wounds were made on each pig with three on the left side and three on the right side of each pig covering a surface area of 40×40 mm at a depth of 0.76 mm. […] For each pig, the wounds on the left of the animal were treated while the wounds on the right wide were left as untreated controls. […] Standard of care was advised on by veterinarians with experience in dealing with wound management in a farm setting.

B1: Lactea-Lf: bovine lactoferrin purified from raw untreated milk by cation exchange chromatography and filtration according to Example 1 (protein)
chain: APRKNVRWCTISQPEWFKCRRWQWRMKKLGAPSITCVRRAFALECIRAIAEKKADAVTLDGGMVFEAGRDPYKLRPVAAEIYGTKESPQTHYYAVAVVKKGSNFQLDQLQGRKSCHTGLGRSAGWVIPMGILRPYLSWTESLEPLQGAVAKFFSASCVPCIDRQAYPNLCQLCKGEGENQCACSSREPYFGYSGAFKCLQDGAGDVAFVKETTVFENLPEKADRDQYELLCLNNSRAPVDAFKECHLAQVPSHAVVARSVDGKEDLIWKLLSKAQEKFGKNKSRSFQLFGSPPGQRDLLFKDSALGFLRIPSKVDSALYLGSRYLTTLKNLRETAEEVKARYTRVVWCAVGPEEQKKCQQWSQQSGQNVTCATASTTDDCIVLVLKGEADALNLDGGYIYTAGKCGLVPVLAENRKTSKYSSLDCVLRPTEGYLAVAVVKKANEGLTWNSLKDKKSCHTAVDRTAGWNIPMGLIVNQTGSCAFDEFFSQSCAPGRDPKSRLCALCAGDDQGLDKCVPNSKEKYYGYTGAFRCLAEDVGDVAFVKNDTVWENTNGESTADWAKNLNREDFRLLCLDGTRKPVTEAQSCHLAVAPNHAVVSRSDRAAHVKQVLLHQQALFGKNGKNCPDKFCLFKSETKNLLFNDNTECLAKLGGRPTYEEYLGTEYVTAIANLKKCSTSPLLEACAFLTR
- % of Total, Apolactoferrin [1]: 91.26 +/− 1.39%
- % of Total, Hololactoferrin ([1]; listed as API-E2): 8.74+/−1.39%
- Delta H, Apolactoferrin peak ([1]; listed as API-E2): 111.4 ± 2.2 kcal/mol
- Delta H, Hololactoferrin peak ([1]; listed as API-E2): 151.2 ± 1.72 kcal/mol
- Tm, Apolactoferrin peak ([1]; listed as API-E2): 60.2+/−0.8 C and 60.2 +/− .8 C
- Tm, Hololactoferrin peak ([1]; listed as API-E2): 88.38+/−0.8 C and 88.38 +/− .8 C
- pH of salivary bacteria slurry ([2]; 1 mg/mL): above 5.5
- pH of salivary bacteria slurry ([2]; 10 mg/mL): above 5.5
- Relative Bacterial Growth, Replicate 1 ([3]; listed as Lactea-Lf Lot 1): 3.15E−09
- Relative Bacterial Growth, Replicate 2 ([3]; listed as Lactea-Lf Lot 1): 0.002228
- Relative Bacterial Growth, Replicate 3 ([3]; listed as Lactea-Lf Lot 1): 0.04512
- Relative Bacterial Growth, Replicate 1 ([3]; listed as Lactea-Lf Lot 2): 0.01532
- Relative Bacterial Growth, Replicate 2 ([3]; listed as Lactea-Lf Lot 2): 0.005292
- Relative Bacterial Growth, Replicate 3 ([3]; listed as Lactea-Lf Lot 2): 0.01281
- Relative Bacterial Growth, Replicate 1 ([3]; listed as Lactea-Lf Lot 3): 0.003621
- Relative Bacterial Growth, Replicate 2 ([3]; listed as Lactea-Lf Lot 3): 0.01059
- Relative Bacterial Growth, Replicate 3 ([3]; listed as Lactea-Lf Lot 3): 0.008635
- total growth of bacteria by OD600 relative to the growth of untreated bacteria [3]: less than 5%
- concentrations at which potent biofilm inhibition is seen ([4]; E. coli 0157, 24 hours): ≥ 100 µg/mL
- Biofilm Inhibition, Replicate 1 ([4]; [Lf] 0.031 mg/mL): 0.6591
- Biofilm Inhibition, Replicate 2 ([4]; [Lf] 0.031 mg/mL): 0.8959
- Biofilm Inhibition, Replicate 3 ([4]; [Lf] 0.031 mg/mL): 0.7811
- Biofilm Inhibition, Replicate 1 ([4]; [Lf] 0.063 mg/mL): 0.1874
- Biofilm Inhibition, Replicate 2 ([4]; [Lf] 0.063 mg/mL): 0.1722
- Biofilm Inhibition, Replicate 3 ([4]; [Lf] 0.063 mg/mL): 0.2125
- Biofilm Inhibition, Replicate 1 ([4]; [Lf] 0.125 mg/mL): 0.03395
- Biofilm Inhibition, Replicate 2 ([4]; [Lf] 0.125 mg/mL): 0.1076
- Biofilm Inhibition, Replicate 3 ([4]; [Lf] 0.125 mg/mL): 0.0806
- Biofilm Inhibition, Replicate 1 ([4]; [Lf] 0.25 mg/mL): 0.04609
- Biofilm Inhibition, Replicate 2 ([4]; [Lf] 0.25 mg/mL): 0.07314
- Biofilm Inhibition, Replicate 3 ([4]; [Lf] 0.25 mg/mL): 0.07011
- Biofilm Inhibition, Replicate 1 ([4]; [Lf] 0.5 mg/mL): 0.04858
- Biofilm Inhibition, Replicate 2 ([4]; [Lf] 0.5 mg/mL): 0.0748
- Biofilm Inhibition, Replicate 3 ([4]; [Lf] 0.5 mg/mL): 0.08915
- Biofilm Inhibition, Replicate 1 ([4]; [Lf] 1 mg/mL): 0.02346
- Biofilm Inhibition, Replicate 2 ([4]; [Lf] 1 mg/mL): 0.09274
- Biofilm Inhibition, Replicate 3 ([4]; [Lf] 1 mg/mL): 0.02898
- Biofilm Inhibition, Replicate 1 ([4]; [Lf] 2 mg/mL): 0.006072
- Biofilm Inhibition, Replicate 2 ([4]; [Lf] 2 mg/mL): 0.01601
- Biofilm Inhibition, Replicate 3 ([4]; [Lf] 2 mg/mL): −0.01297
- Inhibition of Planktonic Growth [5]: None
- Inhibition of Biofilm Formation [6]: Strong (Lf was deemed to have a strong activity if biofilms were eliminated or significantly reduced to less than 90% less than no treatment at concentrations of 10 mg/mL or less after 24 hours of growth)
- Inhibition of Biofilm Formation [7]: Strong (Lf was deemed to have a strong activity if biofilms were eliminated or significantly reduced to less than 90% less than no treatment at concentrations of 10 mg/mL or less after 24 hours of growth)
- Inhibition of Biofilm Formation [8]: Strong (Lf was deemed to have a strong activity if biofilms were eliminated or significantly reduced to less than 90% less than no treatment at concentrations of 10 mg/mL or less after 24 hours of growth)
- survival of mice following wounding ([9]; freeze dried powder directly into the wound bed, non-sterile housing, study to day 28, all three untreated mice died by day 12): only one mouse died at day 14 and the other two survived to the conclusion of the study at day 28
- toxicity of powder administered to wounds ([9]; mice, freeze-dried powder of pure Lf administered to the wounds): no toxicity was observed
- wound healing [10]: healing occurred within one day
